For orientation: Km means the concentration of substrate that gives half-maximal velocity. The kcat is the number of substrate molecules converted per active site and unit of time at saturation. In general, kcat/Km refers to the second-order rate constant that governs catalysis at low substrate concentration. As usually defined, the stoichiometry N is a count of units in the complex or per binding partner.

Four molecules from publication PMC11982464, “Structural insight into the catalytic mechanism of the bifunctional enzyme L-fucokinase/GDP-fucose pyrophosphorylase” (The Journal of Biological Chemistry, 2025) can be followed below.

Series [1] deals with C[C@@H]1O[C@H](OP(=O)(O)O)[C@@H](O)[C@H](O)[C@@H]1O. The series can be described thus: purified protein. Particulars: co-substrate GTP, 50 mM Hepes pH 7.5, 2 mM MgCl2.
Series [2] deals with the molecule itself. As to the kind of experiment: AUC + SEC-MALS; SV-AUC at 20 °C, about 0.5 mg/ml, 50 mM Tris pH 8.0, 150 mM NaCl, 40,000 rpm; SEC-MALS at 1 mg/ml in 50 mM Tris pH 8.0, 150 mM NaCl, ENrich SEC 650 column. Background: In gel filtration, larger molecules generally elute earlier.
Setting [3] is: GDP-fucose pyrophosphorylase site.

Consider “FKP-FL (L-fucokinase/GDP-β-L-fucose pyrophosphorylase, full length) (Bacteroides fragilis)”, for which, in series [1] (setting [3]), the Michaelis-Menten constant (Km) turned out to be 40 ± 4 µM, the catalytic constant (kcat) was determined as 5.6 ± 0.3 s⁻¹ and the catalytic efficiency (kcat/Km) was found to be 140000 M⁻¹ s⁻¹.
In the case of SUMO-FKP-NTD (Bacteroides fragilis), the Km in series [1] came to 80 ± 8 µM.

B1: full-length L-fucokinase/GDP-β-L-fucose pyrophosphorylase (FKP-FL) from Bacteroides fragilis 9343 (enzyme, UniProt Q58T34 1-949, looked up)
chain: MQKLLSLPSNLVQSFHELERVNRTDWFCTSDPVGKKLGSGGGTSWLLEECYNEYSDGATFGEWLEKEKRILLHAGGQSRRLPGYAPSGKILTPVPVFRWERGQHLGQNLLSLQLPLYEKIMSLAPDKLHTLIASGDVYIRSEKPLQSIPEADVVCYGLWVDPSLATHHGVFASDRKHPEQLDFMLQKPSLAELESLSKTHLFLMDIGIWLLSDRAVEILMKRSHKESSEELKYYDLYSDFGLALGTHPRIEDEEVNTLSVAILPLPGGEFYHYGTSKELISSTLSVQNKVYDQRRIMHRKVKPNPAMFVQNAVVRIPLCAENADLWIENSHIGPKWKIASRHIITGVPENDWSLAVPAGVCVDVVPMGDKGFVARPYGLDDVFKGDLRDSKTTLTGIPFGEWMSKRGLSYTDLKGRTDDLQAVSVFPMVNSVEELGLVLRWMLSEPELEEGKNIWLRSEHFSADEISAGANLKRLYAQREEFRKGNWKALAVNHEKSVFYQLDLADAAEDFVRLGLDMPELLPEDALQMSRIHNRMLRARILKLDGKDYRPEEQAAFDLLRDGLLDGISNRKSTPKLDVYSDQIVWGRSPVRIDMAGGWTDTPPYSLYSGGNVVNLAIELNGQPPLQVYVKPCKDFHIVLRSIDMGAMEIVSTFDELQDYKKIGSPFSIPKAALSLAGFAPAFSAVSYASLEEQLKDFGAGIEVTLLAAIPAGSGLGTSSILASTVLGAINDFCGLAWDKNEICQRTLVLEQLLTTGGGWQDQYGGVLQGVKLLQTEAGFAQSPLVRWLPDHLFTHPEYKDCHLLYYTGITRTAKGILAEIVSSMFLNSSLHLNLLSEMKAHALDMNEAIQRGSFVEFGRLVGKTWEQNKALDSGTNPPAVEAIIDLIKDYTLGYKLPGAGGGGYLYMVAKDPQAAVRIRKILTENAPNPRARFVEMTLSDKGFQVSRS
notes: The calculated mass is printed as 108 kDa; also called L-fucokinase/GDP-fucose pyrophosphorylase; source: E. coli BL21 (DE3), purified (HiTrap chelating HP, Superdex 200 gel filtration)
Take B1: the “stoichiometry N” value in series [2] turned out to be 4.

B2: C-terminal domain of FKP (FKP-CTD), individually prepared (domain or fragment, Bacteroides fragilis 9343, UniProt Q58T34 518-949, looked up)
chain: MPELLPEDALQMSRIHNRMLRARILKLDGKDYRPEEQAAFDLLRDGLLDGISNRKSTPKLDVYSDQIVWGRSPVRIDMAGGWTDTPPYSLYSGGNVVNLAIELNGQPPLQVYVKPCKDFHIVLRSIDMGAMEIVSTFDELQDYKKIGSPFSIPKAALSLAGFAPAFSAVSYASLEEQLKDFGAGIEVTLLAAIPAGSGLGTSSILASTVLGAINDFCGLAWDKNEICQRTLVLEQLLTTGGGWQDQYGGVLQGVKLLQTEAGFAQSPLVRWLPDHLFTHPEYKDCHLLYYTGITRTAKGILAEIVSSMFLNSSLHLNLLSEMKAHALDMNEAIQRGSFVEFGRLVGKTWEQNKALDSGTNPPAVEAIIDLIKDYTLGYKLPGAGGGGYLYMVAKDPQAAVRIRKILTENAPNPRARFVEMTLSDKGFQVSRS
notes: L-fucokinase/GDP-fucose pyrophosphorylase (FKP), Bacteroides fragilis 9343, GenBank AY849806, C-terminal domain 518-949 (the abstract says 519-949); The calculated mass is printed as 49 kDa; The abstract gives 519-949, the results 518-949; source: E. coli BL21 (DE3), purified (HiTrap chelating HP, Superdex 200 gel filtration)
With B2, the “stoichiometry N” value in series [2] is 2.
